From patent US9789176

Target: CD40 (from R&D systems) (UniProt P25942)
Sequence of UniProt P25942 (P25942 21-193 limits assumed): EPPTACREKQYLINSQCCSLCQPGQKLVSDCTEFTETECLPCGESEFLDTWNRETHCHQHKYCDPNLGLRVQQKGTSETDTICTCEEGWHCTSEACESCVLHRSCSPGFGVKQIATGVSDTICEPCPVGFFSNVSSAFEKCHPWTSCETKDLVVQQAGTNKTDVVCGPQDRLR

Question: How did the Kd turn out when “toxic shock syndrome toxin-1 (TSST-1), native / wild-type (from UniProt P06886 41-234) (other; other documents disagree on this pair)” was run?
Answer: 2700 nM
